Assay results: publication PMC11347169

What was measured:
[1] = target: Human wild-type DNA polymerase δ (WT Pol δ) (human) (UniProt P28340); assay: MST; His6-tagged Pol δ labelled with RED-Tris-NTA, 20 nM final; L-Tag titrated in 16 concentrations beginning with 500 nM; PBS-T buffer; incubated 40 min at 37°C; Monolith NT.115, premium-coated capillaries
[2] = target: Human wild-type DNA polymerase δ (WT Pol δ) (human) (UniProt P28340)
[3] = target: Simian virus 40 large T antigen (L-Tag) (simian virus 40) (UniProt P03070)

Substance: Simian virus 40 large T antigen (L-Tag) (from UniProt P03070 1-708) (enzyme)
- Kd [1]: 6.7 nM
- lifetime of Pol δ–PCNA on DNA in single-molecule flow-stretching assays: primer extension alone against leading-strand synthesis with L-Tag [2]: 3 min

Substance: Human mini-chromosome maintenance protein 10 (Mcm10) (from UniProt Q7L590 1-875) (natural protein)
- saturation concentration of Mcm10 for stimulating L-Tag unwinding in the bulk assay (25 nM L-Tag, 0.5 nM forked DNA) [3]: < 8 nM

Substance: Human fork protection complex (FPC): Claspin, TIMELESS, Tipin (from UniProt Q9HAW4 1-1339; Q9UNS1 1-1208; Q9BVW5 1-301)
- saturation concentration of FPC for stimulating L-Tag unwinding in the bulk assay (25 nM L-Tag, 0.5 nM forked DNA) [3]: < 8 nM
